Test results: PMC12168268, “Targeted inhibition of Ninjurin2 promotes chemosensitivity in chemoresistant gastric cancer by suppressing cancer-initiating cells” (Biomarker Research, 2025)

Molecular target: T1, recombinant human Periostin (human, UniProt Q15063 22-836)
T1 construct: Periostin, human, recombinant; source: bought: Sino Biological
T1 sequence (looked up): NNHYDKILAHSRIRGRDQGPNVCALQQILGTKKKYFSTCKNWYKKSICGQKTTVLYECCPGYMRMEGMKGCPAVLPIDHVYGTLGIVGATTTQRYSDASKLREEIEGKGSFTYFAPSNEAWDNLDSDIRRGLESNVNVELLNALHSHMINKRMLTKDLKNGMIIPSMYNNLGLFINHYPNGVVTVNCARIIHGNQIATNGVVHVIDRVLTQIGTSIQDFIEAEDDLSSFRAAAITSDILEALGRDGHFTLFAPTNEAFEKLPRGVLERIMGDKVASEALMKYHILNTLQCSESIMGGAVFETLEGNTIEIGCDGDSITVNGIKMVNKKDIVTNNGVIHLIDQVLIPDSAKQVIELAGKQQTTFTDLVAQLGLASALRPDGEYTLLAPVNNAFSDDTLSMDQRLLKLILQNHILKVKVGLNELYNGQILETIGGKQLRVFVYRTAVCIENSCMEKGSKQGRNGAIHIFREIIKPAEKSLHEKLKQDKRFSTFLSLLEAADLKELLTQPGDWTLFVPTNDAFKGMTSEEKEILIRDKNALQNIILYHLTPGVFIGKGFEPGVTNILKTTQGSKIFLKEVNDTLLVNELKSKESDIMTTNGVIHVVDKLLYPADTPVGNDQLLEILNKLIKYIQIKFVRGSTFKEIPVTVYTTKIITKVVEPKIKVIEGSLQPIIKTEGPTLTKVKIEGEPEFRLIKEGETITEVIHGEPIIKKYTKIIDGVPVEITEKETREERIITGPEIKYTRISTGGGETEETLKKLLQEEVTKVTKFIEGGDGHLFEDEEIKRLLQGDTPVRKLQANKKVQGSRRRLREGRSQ
Experiment: SPR; Biacore 3000; NINJ2 extracellular domain immobilised by amine coupling on a carboxymethyldextran chip (CMD200M); periostin injected at 231, 116, 58, 29 and 14 nM, 30 µL/min, 2 min association, 5 min dissociation; HBS-T (10 mM HEPES, 150 mM NaCl, 0.005% Tween20) pH 7.4
Conditions: both partners purified

B1: extracellular domain (Met1-Thr65) of recombinant human NINJ2 (domain or fragment, UniProt Q9NZG7 1-65, looked up)
chain: MESARENIDLQPGSSDPRSQPINLNHYATKKSVAESMLDVALFMSNAMRLKAVLEQGPSSHYYTT
notes: Ninjurin-2 (NINJ2), human, extracellular domain, residues Met1-Thr65; also called NINJ2 extracellular domain; source: bought: R&D Systems
Question: How did the Kd turn out when B1 was run?
Answer: 16.9 nM
